Laboratory results: patent US6194173A, “Binding proteins for phosphoinositides, GRP1 or general receptor 1 for phophoinositide” (priority 1999, dated 2001)
“Also recorded” adds a separate entry of the source. Blank lines part the entries; values can stand above or below the molecule they belong to.

Legend:
[1] = system: ARNO; conditions: vesicles with high concentrations of negatively charged phospholipids; cited from earlier work
[2] = target: T1, GRP (Mus musculus, UniProt O08967); test: Effect of phosphoinositides on GRP-catalyzed ARF1 guanine nucleotide exchange; type: biochemical; conditions: 25 μM lipid, 0.15 μM GRP
T1 construct: GST (N, cleaved yes); made in house; host or cells: GRP from pGEX-4T; ARF1 from baculovirus-infected Sf-9 cells
T1 sequence (O08967 1-399): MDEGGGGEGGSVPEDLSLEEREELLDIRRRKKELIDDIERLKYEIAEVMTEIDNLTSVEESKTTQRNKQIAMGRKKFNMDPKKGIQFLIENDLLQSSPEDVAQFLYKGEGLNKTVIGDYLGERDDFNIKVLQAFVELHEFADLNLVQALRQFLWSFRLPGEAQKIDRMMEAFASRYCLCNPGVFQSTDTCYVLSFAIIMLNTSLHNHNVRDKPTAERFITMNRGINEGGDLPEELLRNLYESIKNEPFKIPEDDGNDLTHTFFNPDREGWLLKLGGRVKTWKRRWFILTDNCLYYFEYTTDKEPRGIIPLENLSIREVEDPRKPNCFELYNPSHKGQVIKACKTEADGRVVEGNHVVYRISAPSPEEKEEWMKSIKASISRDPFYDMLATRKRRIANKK

[3] = target: T2, PH domain of GRP (Mus musculus, UniProt O08967); test: Competition for [3H]dioctanoyl PtdIns(3,4,5)P3 binding to the PH domain of GRP; set-up: GST fused to the PH region of GRP (amino acids 239-399); made in house; host or cells: bacteria; conditions: FIG. 9B
T2 sequence (O08967 239-399): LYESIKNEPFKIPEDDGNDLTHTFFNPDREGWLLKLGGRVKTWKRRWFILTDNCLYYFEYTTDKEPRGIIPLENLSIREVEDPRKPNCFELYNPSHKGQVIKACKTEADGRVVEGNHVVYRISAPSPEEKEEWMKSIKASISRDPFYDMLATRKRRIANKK
Method: Binding assays were performed as described in (Rameh, L. E. et al., J. Biol. Chem., In Press). Briefly, GST fused to the PH region of GRP (amino acids 239-399) was bound to glutathione immobilized on agarose beads (Sigma). Synthetic [^3 H]-labeled diotanoyl PtdIns(3,4,5)P3 was added, and after one hour the beads were separated from the supernatant by centrifugation. The amount of [^3 H]-PtdIns(3,4,5)P3 bound to the PH domain was calculated by subtracting the amount of free [^3 H] present in supernatants from GST-GRP from the amount of free [^3 H] in supernatants from control GST. The data was fitted to the equation [bound]=Bmax×[free]/(KD + [free]) by least squares curve fit. For the competition assays the beads containing the GST-fusion proteins were incubated with 2.5 μM[^3 H]-labeled dioctanoyl PtdIns(3,4,5)P3 bound was calculated based on the amount of [^3 H] bound to the beads in the absence of competitor. The total [^3 H] bound to the GST control was less then 0.5% of the total [^3 H] bound to GRP PH domain. The data was fitted to the equation % bound=100-n×L/Klapp +L) where n is the % specific binding, L is the concentration of unlabeled lipid added and Klapp is the apparent competitive dissociation constant. The rations of the apparent dissociation constants accurately reflect the ratios of the true dissociation constants under the present experimental conditions (Rameh, L. E. et al., J. Biol. Chem., In Press).
The data depicted in FIG. 8 indicate that receptor signaling through PI3-kinases, which generates PtdIns(3,4,5)P3, may specifically regulate ARF proteins through GRP. In order to further test this, the relative binding affinities of PtdIns(3,4,5)P3 versus PtdIns (4,5)P2, which is constitutively present in cell membranes, for the PH domain of GRP were determined. A GST fusion protein of the PH domain of GRP was incubated with various concentrations of synthetic [^3 H]dioctanoyl PtdIns(3,4,5)P3 and binding was determined (FIG. 9A). These experiments show high affinity binding of this polyphosphoinositide,with a calculated Kd=0.5 μM.

[4] = system: PH domain of PLCγ1; conditions: cited from earlier work
[5] = system: integrin β2 cytoplasmic domain; conditions: through Sec7 homology region; cited from earlier work
[6] = system: ARF5; conditions: cited from earlier work
[7] = system: ARF6; test: ARF6 guanine nucleotide exchange ([35S]GTPγS binding); type: biochemical
[8] = system: ARF5; test: ARF5 guanine nucleotide exchange ([35S]GTPγS binding); type: biochemical
[9] = Binding of [32P]PI(3,4,5)P3 by GST fusion proteins spotted on nitrocellulose; conditions: 150 pmol protein on nitrocellulose; relative to GST
Method: The 3'-phosphatidylinositol probes labeled at the 3' position were generated using GST-p110 PI3-kinase purified from recombinant bacculovirus infected Sf 9 cells, using either purified phosphatidylinositol phosphates or crude brain lipid. Briefly, 20 mg phospholipid in chloroform was dried under N2 and resuspended in […] of buffer containing Tris-HCl pH 7.4, EDTA 1 mM and incubated in […] phopsphorylation media containing 20 mM Tris-HCl pH 7.4, 100 mM NaCl, 10 mM MgCl2, 0.5 mM EGTA. 0.2 mM adenosine, GST-p110 and 5-10 mCi [g-^32 P]ATP (5 Ci/umol). The reaction was carried out for 2 h at room temperature, quenched by addition of 0.2 ml of 1M HCl, followed by 0.5 ml of chloroform:methanol (1:1). The organic phase containing phospholipids was washed 4 times with 0.4 ml of methanol:HCl (1: 1) and stored at -70° C. until use. Just before use, the lipid was dried under a stream of nitrogen with phosphatidyl serine corresponding to a final concentration of 20 mg/ml. The identities of the PI3-P, PI3,4-P2 and PI3,4,5-P3 were confirmed by TLC and HPLC analysis.
To generate the GST fusion proteins, PCR reactions using the primers: […] (SEQ ID NO:9) and […] (SEQ ID NO:10) for the GST-N construct, […] (SEQ ID NO:11) and […] (SEQ ID NO:12) for the GST-Sec7 construct, […] (SEQ ID NO:13) and […] (SEQ ID NO:14) for the GSTPH construct, and […] (SEQ ID NO:15) and […] (SEQ ID NO:16) for the GSTGRP constructs. The sequences of the PCR products were verified, and cloned into pGEX-5X-3 in the EcoRI and Xba 1 sites. The bacteria were lysed and the fusion proteins were bound to gluthathione agarose according to standard procedures. Elution was effected by incubation of the beads with one volume 20 mM Hepes, 100 mM NaCl, 1 mM dithiotreitol (H buffer) supplemented with 10 mM gluthatione and 1% sodium cholate, and the eluate was dialyzed extensively against H buffer. For binding assays, protein was bound to nitrocellulose using a BIO-RAD BIO-DOT™ apparatus, using 150 pmol per well for binding assays and 7.5 pmol for competition assays. The nitrocellulose was washed in assay buffer, and 3 mm circles of the filters containing the protein were cut out and incubated in […] assay buffer with the relevant lipids and competitors for 2 h under constant agitation. The filters were washed four times with 1 mL assay buffer and counted in a scintillation counter.
In order to determine whether PI(3,4,5)P3 binding could be localized to specific sequences within the GRP structure, GST fusion proteins containing either residues 239 to 399 (PH domain), residues 52 to 260 (Sec7 domain), or residues 5 to 71, full length GRP residues 5-399 were expressed in bacteria and purified on glutathione-conjugated beads. […] 150 pmol of the proteins were spotted on nitrocellulose filters, incubated with [^32 P]PI(3,4,5)P3 and the amount of bound lipid was determined as described. The values are the means of the quadruplicate determinations, and the error bars are the standard deviations. […] Nitrocellulose filters with GST-PH were incubated with 25,000 cpm of each of the phospholipids and the amount of bound lipid determined as described above. The values are the means of quadruplicate determinations and the error bars are the standard deviations. […] Although previous work has shown that PH domain from PLCδ (Lemmon et al. (1995) supra) and various other proteins bind 4,5-polyphosphoinositide, none have been reported to preferentially associate with a 3-polyphosphoinositide. […]

[10] = system: ARF1; test: ARF1 guanine nucleotide exchange ([35S]GTPγS binding); type: biochemical
[11] = 40 minutes, phosphatidylcholine and cholate

- stimulation of ARF1 exchange activity in the presence of GRP ([2]; 0.05% cholate and 0.05% CHAPS (low negative charge)): little or no effect
- stimulation of ARF1 exchange activity in the presence of GRP ([2]; 0.1% cholate (high negative charge)): stimulated
- affinity, fold lower than PtdIns(3,4,5)P3 [3]: 50 fold
Molecule: PtdIns(4,5)P2
- recruitment of ARNO and stimulation of guanine nucleotide exchange on ARF1 [1]: causing stimulation of guanine nucleotide exchange on ARF1; also recorded: sufficient for its recruitment to membranes as well as activation of ARF exchange
- interaction with isolated PH domain of PLCγ1 [4]: high affinity

B1: cytohesin-1: B2-1 encoded protein (denoted cytohesin 1) (protein)
chain: MEEDDSYVPSDLTAEERQELENIRRRKQELLADIQRLKDEIAEVANEIENLGSTEERKNMQRNKQVAMGRKKFNMDPKKGIQFLIENDLLKNTCEDIAQFLYKGEGLNKTAIGDYLGERDEFNIQVLHAFVELHEFTDLNLVQALRQFLWSFRLPGEAQKIDRMMEAFAQRYCQCNNGVFQSTDTCYVLSFAIIMLNTSLHNPNVKDKPTVERFIAMNRGINDGGDLPEELLRNLYESIKNEPFKIPEDDGNDLTHTFFNPDREGWLLKLGGGRVKTWKRRWFILTDNCLYYFEYTTDKEPRGIIPLENLSIREVEDSKKPNCFELYIPDNKDQVIKACKTEADGRWEGNHTVYRISAPTPEEKEEWIKCIKAAISRDPFYEMLAARKKKVSSTKRH
- binding of the integrin β2 cytoplasmic domain [5]: high affinity
- ARF5 as substrate for cytohesin-1 [6]: not to be a substrate

- ARF6 guanine nucleotide exchange [7]: no effect and not
- concentration that maximally activates labeled nucleotide binding to ARF5 [8, 11]: 2.5 µM
- binding of [^32 P]PI(3,4,5)P3 by GST fusion protein [9]: extensive binding
- concentration that maximally activates labeled nucleotide binding to ARF1 [10, 11]: 2.5 µM
B2: GRP: general receptor for phosphoinositides, mouse protein with SEC7 and PH domains (protein)
chain: T1 sequence (O08967 1-399)
- ARF5 guanine nucleotide exchange ([8]; [^35 S]GTPγS binding): significantly enhanced; also recorded: catalyze nucleotide exchange; also recorded: selectively catalyzes
- ARF1 guanine nucleotide exchange ([10]; [^35 S]GTPγS binding to immunoprecipitated ARF1): catalyze nucleotide exchange; also recorded: selectively catalyzes
